Experimental data from article PMC11488288.

Columns and labels:
[1] = cycloheximide chase, immunoblot, NP cells
[2] = nuclear/cytoplasmic fractionation and immunofluorescence
[3] = in vitro ubiquitination with His-OGT and UDP-GlcNAc; conditions: glycan lost; control: purified Flag-YTHDF2 WT
[4] = HA-Ub, MG132, IP and immunoblot, NP cells
[5] = actinomycin D chase, RT-qPCR; conditions: glycan lost; control: shYTHDF2 + Flag-YTHDF2 WT
[6] = immunoblot, with or without MG132, CQ, BafA1; conditions: glycan lost; control: untreated
[7] = IHC and Western blot of disc tissue; conditions: glycan gained; control: IDD mice given saline
[8] = immunoblot of endogenous YTHDF2, NP cells; conditions: glycan gained; control: H2O2 alone
[9] = glycan lost, control: Flag-YTHDF2 WT
[10] = glycan gained, control: untreated Flag-YTHDF2 WT

B1: YTHDF2: S263A (protein)
parent chain: MSASSLLEQRPKGQGNKVQNGSVHQKDGLNDDDFEPYLSPQARPNNAYTAMSDSYLPSYYSPSIGFSYSLGEAAWSTGGDTAMPYLTSYGQLSNGEPHFLPDAMFGQPGALGSTPFLGQHGFNFFPSGIDFSAWGNNSSQGQSTQSSGYSSNYAYAPSSLGGAMIDGQSAFANETLNKAPGMNTIDQGMAALKLGSTEVASSVPKVVGSAVGSGSITSNIVASSSLPPATIAPPKPASWADIASKPAKQQPKLKTKNGIAGSSLPPPPIKHNMDIGTWDNKGPVAKAPSQALVQNIGQPTQGSPQPVGQQANNSPPVAQASVGQQTQPLPPPPPQPAQLSVQQQAAQPTRWVAPRNRGSGFGHNGVDGNGVGQSQAGSGSTPSEPHPVLEKLRSINNYNPKDFDWNLKHGRVFIIKSYSEDDIHRSIKYNIWCSTEHGNKRLDAAYRSMNGKGPVYLLFSVNGSGHFCGVAEMKSAVDYNTCAGVWSQDKWKGRFDVRWIFVKDVPNSQLRHIRLENNENKPVTNSRDTQEVPLEKAKQVLKIIASYKHTTSIFDDFSHYEKRQEEEESVKKERQGRGK
For B1, the degradation_or_half_life [1, 9] was “decreases”, the localisation_or_trafficking [2, 9] was “no change” and the “other: ubiquitination” value [3] was “increases”. The “other: ubiquitination” value [4, 9] was “increases” and the “other: target mRNA stability” value [5] was “decreases”.

B2: YTHDF2: OSMI-1 (protein)
parent chain: B1 parent chain
With B2 the localisation_or_trafficking ([2]; glycan lost, control: untreated) was “no change” and the expression_or_secretion [6] was “decreases”.

B3: YTHDF2: TMG (protein)
parent chain: B1 parent chain
For B3, the degradation_or_half_life [1, 10] was “increases”, the localisation_or_trafficking ([2]; glycan gained, control: untreated) was “no change” and the expression_or_secretion [7] was “increases”. The “other: ubiquitination” value [4, 10] was “changes” and the expression_or_secretion [8] was “increases”.
